Reference: US20190038704A1

Assays:
[1] = target: EphA4 on neurons of embryonic day 6 chicken nasal retinal explants (chicken) (UniProt Q07496); experiment: cell-based or functional assay
[2] = target: mouse EphA4 ectodomain fused to Fc (mouse) (UniProt Q03137); experiment: competition ELISA: ephrin-A5 AP binding to immobilized EphA4 Fc
mouse EphA4 ectodomain fused to Fc (mouse), sequence (Q03137 20-547): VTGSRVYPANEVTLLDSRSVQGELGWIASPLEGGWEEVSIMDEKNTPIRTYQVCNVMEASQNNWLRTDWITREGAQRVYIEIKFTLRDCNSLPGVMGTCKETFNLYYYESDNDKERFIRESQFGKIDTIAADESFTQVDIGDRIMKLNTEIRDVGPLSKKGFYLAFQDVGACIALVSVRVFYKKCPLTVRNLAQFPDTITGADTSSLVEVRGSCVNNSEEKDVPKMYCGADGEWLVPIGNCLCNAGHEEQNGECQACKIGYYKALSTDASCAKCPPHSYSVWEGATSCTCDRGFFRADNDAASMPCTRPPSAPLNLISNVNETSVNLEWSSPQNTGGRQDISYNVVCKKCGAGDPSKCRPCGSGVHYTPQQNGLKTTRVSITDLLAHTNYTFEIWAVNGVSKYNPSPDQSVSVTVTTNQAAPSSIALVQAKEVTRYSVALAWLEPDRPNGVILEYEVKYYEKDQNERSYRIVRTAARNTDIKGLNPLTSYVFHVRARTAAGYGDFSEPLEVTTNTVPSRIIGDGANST

ephrin-A5 Fc (Fc fusion), sequence (P52803 21-203): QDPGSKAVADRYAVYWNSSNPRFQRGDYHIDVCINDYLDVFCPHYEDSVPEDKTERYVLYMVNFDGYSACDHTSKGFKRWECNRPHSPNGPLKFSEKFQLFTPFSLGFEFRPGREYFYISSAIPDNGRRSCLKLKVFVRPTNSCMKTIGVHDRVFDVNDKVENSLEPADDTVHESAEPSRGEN
EphA4 on neurons of embryonic day 6 chicken nasal retinal explants (chicken), sequence (Q07496 20-986): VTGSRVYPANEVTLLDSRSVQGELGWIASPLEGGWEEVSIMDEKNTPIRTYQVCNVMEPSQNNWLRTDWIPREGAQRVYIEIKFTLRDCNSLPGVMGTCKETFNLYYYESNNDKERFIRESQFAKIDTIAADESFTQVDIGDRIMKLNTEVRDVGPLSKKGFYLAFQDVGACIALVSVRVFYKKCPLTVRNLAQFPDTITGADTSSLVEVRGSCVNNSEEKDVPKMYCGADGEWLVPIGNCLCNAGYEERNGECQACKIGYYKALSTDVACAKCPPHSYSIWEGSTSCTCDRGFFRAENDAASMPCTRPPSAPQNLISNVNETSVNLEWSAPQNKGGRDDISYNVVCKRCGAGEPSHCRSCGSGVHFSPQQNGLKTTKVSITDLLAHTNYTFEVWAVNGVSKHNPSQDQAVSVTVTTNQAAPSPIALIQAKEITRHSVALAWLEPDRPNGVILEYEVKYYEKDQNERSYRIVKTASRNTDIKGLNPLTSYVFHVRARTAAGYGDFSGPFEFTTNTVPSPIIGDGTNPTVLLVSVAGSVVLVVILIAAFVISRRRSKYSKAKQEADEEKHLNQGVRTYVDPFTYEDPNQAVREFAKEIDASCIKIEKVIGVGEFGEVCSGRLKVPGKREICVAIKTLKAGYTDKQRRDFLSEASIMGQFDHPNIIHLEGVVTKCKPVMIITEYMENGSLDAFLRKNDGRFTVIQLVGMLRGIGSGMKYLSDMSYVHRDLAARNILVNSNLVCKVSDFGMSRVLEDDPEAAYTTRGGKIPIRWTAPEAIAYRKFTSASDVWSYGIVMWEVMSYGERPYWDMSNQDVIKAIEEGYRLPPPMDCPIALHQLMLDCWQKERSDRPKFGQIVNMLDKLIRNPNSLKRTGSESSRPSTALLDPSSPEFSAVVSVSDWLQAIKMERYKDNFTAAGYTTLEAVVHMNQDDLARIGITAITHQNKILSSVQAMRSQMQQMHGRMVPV

| percent collapsed growth cones, chicken nasal retinal explants (experiment with APY-d3.am) [1] [%] | percent collapsed growth cones, chicken nasal retinal explants (experiment with APY-βAla8.am) [1] [%] | IC50 [2] [nM] | Substance |
| --- | --- | --- | --- |
| 70 | 65 |  | ephrin-A5 Fc (Fc fusion) |
|  |  | 70 | βAla1-PY-Lys7-βAla8.am (peptide) |
